Assay results as given in US20200024330A1.

Experiments:
Assay in all cases: cell-based or functional assay
[1] = target: HIV-1 Env of isolate 92UG001 (HIV-1)
[2] = target: HIV-1 JR-CSF Env R476A (HIV-1 (isolate JR-CSF)) (UniProt P20871)
[3] = target: HIV-1 Env of isolate MGRM-A-007 (clade A), on pseudovirus (HIV-1)
[4] = target: HIV-1 Env of isolate MGRM-AE-001 (CRF01_AE), on pseudovirus (HIV-1)
[5] = target: HIV-1 Env of isolate MGRM-AG-001 (CRF_AG), on pseudovirus (HIV-1)
[6] = target: HIV-1 Env of isolate 93MW959 (HIV-1)
[7] = target: HIV-1 Env of isolate MGRM-G-025 (HIV-1)
[8] = target: HIV-1 Env of isolate MGRM-C-012 (HIV-1)
[9] = target: HIV-1 JR-CSF Env G471A (HIV-1 (isolate JR-CSF)) (UniProt P20871)
[10] = target: HIV-1 Env of isolate MGRM-AE-007 (CRF01_AE), on pseudovirus (HIV-1)
[11] = target: HIV-1 Env of isolate MGRM-F1-023 (subtype F), on pseudovirus (HIV-1)
[12] = target: HIV-1 Env of isolate MGRM-F1-012 (subtype F), on pseudovirus (HIV-1)
[13] = target: HIV-1 MGRM-Chronic-B-017 Env (pseudovirus) (HIV-1)
[14] = target: HIV-1 Env of isolate MG RM-D-003 (subtype D) (HIV-1)
[15] = target: HIV-1 NL43 Env (pseudovirus) (HIV-1)
[16] = target: HIV-1 Env of isolate MGRM-C-002 (pseudovirus) (HIV-1 isolate MGRM-C-002, subtype C)
[17] = target: HIV-1 Env of isolate 92UG024 (subtype D) (HIV-1)
[18] = target: HIV-1 Env of isolate MGRM-C-014 (pseudovirus) (HIV-1 isolate MGRM-C-014, subtype C)
[19] = target: HIV-1 Env of isolate MG RM-AG-011 (HIV-1)
[20] = target: HIV-1 Env of isolate MG RM-D-011 (subtype D) (HIV-1)
[21] = target: HIV-1 Env of isolate MGRM-F1-010 (subtype F) (HIV-1)
[22] = target: HIV-1 Env of isolate MGRM-F1-008 (subtype F) (HIV-1)
[23] = target: HIV-1 MGRM-Chronic-B-008 Env (pseudovirus) (HIV-1)
[24] = target: HIV-1 Env of isolate MGRM-F1-013 (HIV-1)
[25] = target: HIV-1 Env of isolate MGRM-C-015 (pseudovirus) (HIV-1 isolate MGRM-C-015, subtype C)
[26] = target: HIV-1 92RW020 envelope glycoprotein (Env) (HIV-1)
[27] = target: HIV-1 MGRM-A-007 envelope glycoprotein (Env) (HIV-1)
[28] = target: HIV-1 Env of pseudovirus APV_17, clade B (HIV-1)
[29] = target: HIV-1 JR-CSF envelope protein (Env) on pseudovirus (HIV-1) (UniProt P20871)
[30] = target: HIV-1 Env of isolate MGRM-D-026 (clade D) (HIV-1)
[31] = target: HIV-1 97ZA012 envelope glycoprotein (Env) on pseudovirus (HIV-1)
[32] = target: HIV-1 MGRM-A-009 envelope glycoprotein (Env) (HIV-1)
[33] = target: HIV-1 MGRM-C-025 Env (HIV-1)
[34] = target: HIV-1 MGRM-A-012 envelope glycoprotein (Env) (HIV-1)
[35] = target: HIV-1 MGRM-F1-020 Env (pseudovirus) (HIV-1)
[36] = target: HIV-1 MGRM-C-007 Env (HIV-1)
[37] = target: HIV-1 Env of isolate MGRM-D-005 (clade D) (HIV-1)
[38] = target: HIV-1 Env of isolate MGRM-G-016 (clade G pseudovirus) (HIV-1)
[39] = target: HIV-1 MGRM-F1-022 Env (pseudovirus) (HIV-1)
[40] = target: HIV-1 Env of pseudovirus NL43, clade B (HIV-1)

Sequence of 5329_C19 (PGT-136) (antibody) (VH): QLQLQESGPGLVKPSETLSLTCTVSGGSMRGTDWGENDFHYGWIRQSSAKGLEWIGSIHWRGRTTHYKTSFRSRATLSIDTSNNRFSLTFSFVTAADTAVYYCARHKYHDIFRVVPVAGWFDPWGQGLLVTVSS
Sequence of 5329_C19 (PGT-136) (antibody) (VL): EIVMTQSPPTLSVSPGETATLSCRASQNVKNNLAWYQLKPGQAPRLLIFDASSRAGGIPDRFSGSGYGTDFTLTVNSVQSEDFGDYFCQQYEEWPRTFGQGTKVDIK

Substance | IC50 [1] | Fold IC50 increase relative to wild-type [2] | IC50, single-round pseudovirus neutralization [3] | IC50, single-round pseudovirus neutralization [4] | IC50, single-round pseudovirus neutralization [5] | IC50 [6] | IC50, pseudovirus neutralization [7] | IC50 [8] | Fold IC50 increase relative to wild-type [9] | IC50, single-round pseudovirus neutralization [10] | IC50, pseudovirus neutralization [11] | IC50, pseudovirus neutralization [12] | IC50, pseudovirus neutralization [13] | IC50 (µg/mL), pseudovirus neutralization [14] | IC50, pseudovirus neutralization [15] | IC50 (µg/mL) neutralization [16] | IC50 (µg/mL), pseudovirus neutralization [17] | IC50 (µg/mL) neutralization [18] | neutralization IC50 [19] | IC50 (µg/mL), pseudovirus neutralization [20] | other results
5136_H01 (PGT-131) (antibody) | > 50 µg/mL | 1 fold | > 50 µg/mL | 4.8 µg/mL | > 50 µg/mL | > 50 µg/mL | 7.75 µg/mL | > 50 µg/mL | 1.2 fold | 0.026 µg/mL | > 50 µg/mL | > 50 µg/mL |  |  |  |  |  |  |  |  | 
5145_B14 (PGT-127) (antibody) |  | 1.2 fold |  |  |  |  | 19.3 µg/mL |  | 1.2 fold |  |  |  | > 50 µg/mL | 0.029 µg/mL | > 50 µg/mL | 0.057 µg/mL | > 50 µg/mL | > 50 µg/mL | > 50 µg/mL | 0.015 µg/mL | IC50 (µg/mL), pseudovirus neutralization [21]: > 50 µg/mL; IC50 (µg/mL), pseudovirus neutralization [22]: > 50 µg/mL; IC50, pseudovirus neutralization [23]: 21.5 µg/mL; IC50 [24]: > 50 µg/mL; IC50 (µg/mL) neutralization [25]: > 50 µg/mL
5329_C19 (PGT-136) (antibody) | > 50 µg/mL |  | > 50 µg/mL | > 50 µg/mL | > 50 µg/mL | > 50 µg/mL | > 50 µg/mL | > 50 µg/mL |  | > 50 µg/mL | > 50 µg/mL | > 50 µg/mL |  |  |  |  |  |  |  |  | 
PGT-121 (antibody) |  |  |  |  |  |  |  |  |  |  |  |  |  |  |  |  |  |  |  |  | IC50 neutralization [26]: 0.0063 µg/mL
4838_L06 (PGT-121) (antibody) |  |  |  |  |  |  |  |  |  |  |  |  | > 50 µg/mL | 10.7 µg/mL | > 50 µg/mL | 0.019 µg/mL | > 50 µg/mL | 26.9 µg/mL | > 50 µg/mL | 0.018 µg/mL | IC50 (µg/mL), pseudovirus neutralization [21]: 0.016 µg/mL; IC50 (µg/mL), pseudovirus neutralization [22]: > 50 µg/mL; IC50, pseudovirus neutralization [23]: 0.007 µg/mL; IC50 [24]: 0.083 µg/mL; IC50 (µg/mL) neutralization [25]: 25.1 µg/mL
1496_C09 (PG9) (TCN-109) (antibody) |  |  |  |  |  |  |  |  |  |  |  |  |  |  |  |  |  |  |  |  | IC50 (µg/ml), pseudovirus neutralization [27]: 0.37 µg/mL; IC50 (µg/ml), pseudovirus neutralization [28]: 14.6 µg/mL; neutralization IC50 [29]: < 0.0025 µg/mL; IC50 (µg/ml), pseudovirus neutralization [30]: 17.5 µg/mL; IC50 (µg/ml), pseudovirus neutralization [31]: 1.27 µg/mL; IC50 (µg/ml), pseudovirus neutralization [32]: 0.03 µg/mL; IC50 [33]: 0.17 µg/mL; IC50 (µg/ml), pseudovirus neutralization [34]: 11.2 µg/mL; IC50 (µg/ml), pseudovirus neutralization [35]: 4.55 µg/mL; IC50 [36]: 0.09 µg/mL; IC50 (µg/ml), pseudovirus neutralization [37]: 0.59 µg/mL; IC50 (µg/ml), pseudovirus neutralization [38]: 0.4 µg/mL; IC50 (µg/ml), pseudovirus neutralization [39]: 0.06 µg/mL; IC50 (µg/mL), pseudovirus neutralization [24]: 1.25 µg/mL; IC50 (µg/ml), pseudovirus neutralization [40]: 0.32 µg/mL; IC50 (µg/ml), pseudovirus neutralization [26]: 0.08 µg/mL; IC50 neutralization [26]: 0.161 µg/mL
4877_D15 (PGT-122) (antibody) |  |  |  |  |  |  | 0.079 µg/mL |  |  |  |  |  | 5.66 µg/mL | > 50 µg/mL | > 50 µg/mL | 0.022 µg/mL | > 50 µg/mL | > 50 µg/mL | > 50 µg/mL | 0.019 µg/mL | IC50 (µg/mL), pseudovirus neutralization [21]: 0.024 µg/mL; IC50 (µg/mL), pseudovirus neutralization [22]: > 50 µg/mL; IC50, pseudovirus neutralization [23]: 0.017 µg/mL; IC50 [24]: 0.152 µg/mL; IC50 (µg/mL) neutralization [25]: > 50 µg/mL
5343_B08 (PGT-135) (antibody) | > 50 µg/mL | 0.8 fold | > 50 µg/mL | > 50 µg/mL | > 50 µg/mL | > 50 µg/mL | 0.592 µg/mL | 0.017 µg/mL | 3 fold | > 50 µg/mL | 0.088 µg/mL | 0.01 µg/mL |  |  |  |  |  |  |  |  | 
